Laboratory results reported in paper PMC8721586, “Enzymatic Switching Between Archaeal DNA Polymerases Facilitates Abasic Site Bypass” (Frontiers in Microbiology, 2021).

Substrate: Nc1nc2c(ncn2[C@H]2C[C@H](O)[C@@H](COP(=O)(O)OP(=O)(O)OP(=O)(O)O)O2)c(=O)[nH]1
Test: steady-state single-nucleotide incorporation, FAM-primer gel assay, Michaelis-Menten fit
Format: biochemical, Saccharolobus islandicus
Details: pH 8.0 Tris-HCl, 40 mM KCl, 10 mM MgCl2, 11 nM enzyme, 100 nM primer-template (undamaged S0; also AP-site substrates D1-D8, L1-L8), apparent Km

B1: Dpo2 (SisDpo2) (Saccharolobus islandicus REY15A) (protein)
chain: MREMEEYVLDAYPVKGGVKLFLSNFKEKSIRTTFPVYAITDNPDVVLQHPEVKYYEEEKWKTLNGKEAKVYRFEVESFDAYYYMRKRLNVVNETPTVLSQTLYRLGIKPFRRLNSSDDEFPKVTIAKVVPLDWYGESLKGKVFEVKINNEVRRFYEKPEVEADITECLGEACNYVKSNVKIRIEKKRSPVSAKGLIEWSLISLTPLHEIAYATIGKVLTTNEAWVAFKRRIIIPKIVPRVEKLRRLENIMMADKGGLILFPQPGCYDNVYQVDFSSMYPSLIVKYNISAETVDACDDIKTELHSICLREKGIIPEALEWLIKRKSELKRIDKERAEAIKWILVASFGYLGYRNSLFGKIEAYEMVTYLARKTLRRTMEIAEEMGLKVLHSIIDSLVVKGDNIDKFIERVEKETGLRLDHKRYNWIIFTTTRNDTPYPTRYIANMNGEIIAKGLIRENMPNIVKSFLKDVLRGLSLTRTCSDVKKVRIRDLYEKYRKRTINGEPIDYVIWIKGVPYVRGIKGFYDARLGYMGRDVNYYINYLRRVYDNVEEVISRC
notes: recombinant, expressed in native host S. islandicus E233S; purified as in Feng et al. 2021
- Km: 118 ± 22.7 µM
- kcat: 0.525 ± 0.125 s⁻¹
